Test results: patent US9937235B2, “Lipidated peptides as anti-obesity agents” (USTAV ORGANICKE CHEMIE A BIOCHEMIE AKADEMIE VED CR, V.V.I, priority 2012, dated 2018)
Where a SMILES comes first, the peptide text is derived from it. Where no end group is shown, it is not given here. [ ]: non-standard residue; d: D form. The star is where a group is joined. Palmitoyl = CCCCCCCCCCCCCCCC(=O)*; Myristoyl = CCCCCCCCCCCCCC(=O)*; Nle = CCCC[C@H](N)C(=O)O

T1: rat PrRP receptor in RC-4B/C cells (rat, UniProt Q64121 1-370)
T1 construct: whole, on cells; also called the rat receptor; GPR10
T1 sequence (looked up): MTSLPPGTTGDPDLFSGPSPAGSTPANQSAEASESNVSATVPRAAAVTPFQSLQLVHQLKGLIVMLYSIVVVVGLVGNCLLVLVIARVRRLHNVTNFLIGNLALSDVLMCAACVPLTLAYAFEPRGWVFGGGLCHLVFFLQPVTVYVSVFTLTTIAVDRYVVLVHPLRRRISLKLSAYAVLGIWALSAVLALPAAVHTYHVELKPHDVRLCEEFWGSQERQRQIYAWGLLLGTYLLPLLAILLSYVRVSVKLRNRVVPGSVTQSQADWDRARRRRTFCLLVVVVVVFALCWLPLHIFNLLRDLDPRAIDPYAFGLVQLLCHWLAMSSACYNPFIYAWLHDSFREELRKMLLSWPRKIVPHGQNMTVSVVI


The molecules below were run on fasted C57BL/6 mice (assay: Food intake in fasted mice after SC administration). Conditions: fasted C57BL/6 mice, 5 mg/kg SC, 45 min.
Format: in vivo, mouse
Procedure: Male C57BL/6 mice (An Lab, Prague 4) were bred in the accredited animal facility in the Institute of Organic Chemistry and Biochemistry, Czech Academy of Sciences, Prague, at the Institute of Molecular Genetics, Prague 4, at the temperature of 22±2° C. with access to food and water ad libitum. The day/night cycle was 12/12 hours (light turned on at 6:00 am). Animals were treated according to the Animal Protection Act (Act No. 246/1992). The males were fed standard chow diet St-1 (Mlýn Kocanda, Praha, Czech Republic) which contained 66% saccharides, 25% proteins and 9% lipids with a caloric value of 3.4 kcal/g.
The food was withdrawn 17 hours prior to injection of lipidated peptide and free access to water was maintained. The administration of saline, PrRP or lipidated analogs was performed either by SC injection at doses of 1-10 mg/kg (volume 0.2 ml/mouse), or by ICV using infusion pump (cannulae were inserted into the third brain ventricle 4 days before the experiment following the procedure of Maixnerová et al. (Maixnerová et al., 2011)). The single dose of peptide was 4 nmol/mouse (5 μl/mouse).
Fifteen minutes after the lipidated peptide administration, the mice were given pre-weighed food. The food was then weighed every 30 minutes for 5-10 hours. The administration of every dose was performed at least twice and one group of mice consisted of at least 6 mice. The results were presented as % of food intake as compared with the control group injected with saline.
Statistical evaluation was performed using program Graph-Pad Prism Software (San Diego, Calif., USA), and the one-way ANOVA with a subsequent Dunnettovým post-hoc test. The difference in food intake between mice injected with saline and mice injected with the examined peptide were considered statistically significant at P<0.05.

Row | Molecule | Food intake in mice (5 mg/kg SC) % saline-treated group (45 min)
1 | CCCCCCCCCCCCCC(=O)N[C@@H](CO)C(=O)N[C@@H](CCCNC(=N)N)C(=O)N[C@H](C(=O)N[C@@H](Cc1c[nH]cn1)C(=O)N[C@@H](CCCNC(=N)N)C(=O)N[C@@H](Cc1c[nH]cn1)C(=O)N[C@@H](CO)C(=O)N[C@@H](CCSC)C(=O)N[C@@H](CCC(=O)O)C(=O)N[C@H](C(=O)N[C@@H](CCCNC(=N)N)C(=O)N[C@H](C(=O)N1CCC[C@H]1C(=O)N[C@@H](CC(=O)O)C(=O)N[C@H](C(=O)N[C@@H](CC(N)=O)C(=O)N1CCC[C@H]1C(=O)N[C@@H](C)C(=O)N[C@@H](Cc1c[nH]c2ccccc12)C(=O)N[C@@H](Cc1ccc(O)cc1)C(=O)N[C@@H](C)C(=O)N[C@@H](CO)C(=O)N[C@@H](CCCNC(=N)N)C(=O)NCC(=O)N[C@H](C(=O)N[C@@H](CCCNC(=N)N)C(=O)N1CCC[C@H]1C(=O)N[C@H](C(=O)NCC(=O)N[C@@H](CCCNC(=N)N)C(=O)N[C@@H](Cc1ccccc1)C(N)=O)C(C)C)[C@@H](C)CC)[C@@H](C)CC)[C@@H](C)O)[C@@H](C)CC)[C@@H](C)O [Analog 56] | 35%
2 | CCCCCCCCCCCCCCCC(=O)N[C@@H](CO)C(=O)N[C@@H](CCCNC(=N)N)C(=O)N[C@H](C(=O)N[C@@H](Cc1c[nH]cn1)C(=O)N[C@@H](CCCNC(=N)N)C(=O)N[C@@H](Cc1c[nH]cn1)C(=O)N[C@@H](CO)C(=O)N[C@@H](CCSC)C(=O)N[C@@H](CCC(=O)O)C(=O)N[C@H](C(=O)N[C@@H](CCCNC(=N)N)C(=O)N[C@H](C(=O)N1CCC[C@H]1C(=O)N[C@@H](CC(=O)O)C(=O)N[C@H](C(=O)N[C@@H](CC(N)=O)C(=O)N1CCC[C@H]1C(=O)N[C@@H](C)C(=O)N[C@@H](Cc1c[nH]c2ccccc12)C(=O)N[C@@H](Cc1ccc(O)cc1)C(=O)N[C@@H](C)C(=O)N[C@@H](CO)C(=O)N[C@@H](CCCNC(=N)N)C(=O)NCC(=O)N[C@H](C(=O)N[C@@H](CCCNC(=N)N)C(=O)N1CCC[C@H]1C(=O)N[C@H](C(=O)NCC(=O)N[C@@H](CCCNC(=N)N)C(=O)N[C@@H](Cc1ccccc1)C(N)=O)C(C)C)[C@@H](C)CC)[C@@H](C)CC)[C@@H](C)O)[C@@H](C)CC)[C@@H](C)O [Analog 57] | 11%
3 | CCCCCCCCCCCCCC(=O)N[C@@H](CO)C(=O)N[C@@H](CCCNC(=N)N)C(=O)N[C@@H](C)C(=O)N[C@@H](Cc1c[nH]cn1)C(=O)N[C@@H](CCC(N)=O)C(=O)N[C@@H](Cc1c[nH]cn1)C(=O)N[C@@H](CO)C(=O)N[C@@H](CCSC)C(=O)N[C@@H](CCC(=O)O)C(=O)N[C@H](C(=O)N[C@@H](CCCNC(=N)N)C(=O)N[C@H](C(=O)N1CCC[C@H]1C(=O)N[C@@H](CC(=O)O)C(=O)N[C@H](C(=O)N[C@@H](CC(N)=O)C(=O)N1CCC[C@H]1C(=O)N[C@@H](C)C(=O)N[C@@H](Cc1c[nH]c2ccccc12)C(=O)N[C@@H](Cc1ccc(O)cc1)C(=O)N[C@H](C(=O)NCC(=O)N[C@@H](CCCNC(=N)N)C(=O)NCC(=O)N[C@H](C(=O)N[C@@H](CCCNC(=N)N)C(=O)N1CCC[C@H]1C(=O)N[C@H](C(=O)NCC(=O)N[C@@H](CCCNC(=N)N)C(=O)N[C@@H](Cc1ccccc1)C(N)=O)C(C)C)[C@@H](C)CC)[C@@H](C)O)[C@@H](C)CC)[C@@H](C)O)[C@@H](C)O [Analog 60] (Myristoyl-SRAHQHSMETRTPDINPAWYTGRGIRPVGRF-NH2) | 20%
4 | TPDINPAWYASRGIRPVGRF-NH2 [Analog 51] | 100%

What follows are molecules tested against T1, rat PrRP receptor in RC-4B/C cells (assay: competition with 125I-rat PrRP31 on RC-4B/C cells). Conditions: not given.
Procedure: The rat pituitary cell line RC-4B/C (ATCC, Manassas, USA) was grown on 24-well plates which had their bottom coated with polyethyleneimine. The cells were grown to the optimal density of 300-450 thousand per well.
Plates were incubated for 60 minutes at room temperature. After incubation, the cells were solubilized in 0.1 mol/l solution of NaOH and the radioactivity bound to the cells was counted using a γ-counter. The experiments were performed in duplicate and repeated at least three times.
For evaluation of competitive binding experiments, the program Graph Pad Prism Software (San Diego, Calif., USA) was used. A method of nonlinear regression assuming one-site binding was used.

Row | Molecule | Ki
5 | TPDINPAWYASRGIRPVGRF-NH2 [analog no. 51] | 0.00238 µM
6 | Myristoyl-SRTHRHSMEIRTPDINPAWYASRGIRPVGRF-NH2 (SMILES CCCCCCCCCCCCCC(=O)N[C@@H](CO)C(=O)N[C@@H](CCCNC(=N)N)C(=O)N[C@H](C(=O)N[C@@H](Cc1c[nH]cn1)C(=O)N[C@@H](CCCNC(=N)N)C(=O)N[C@@H](Cc1c[nH]cn1)C(=O)N[C@@H](CO)C(=O)N[C@@H](CCSC)C(=O)N[C@@H](CCC(=O)O)C(=O)N[C@H](C(=O)N[C@@H](CCCNC(=N)N)C(=O)N[C@H](C(=O)N1CCC[C@H]1C(=O)N[C@@H](CC(=O)O)C(=O)N[C@H](C(=O)N[C@@H](CC(N)=O)C(=O)N1CCC[C@H]1C(=O)N[C@@H](C)C(=O)N[C@@H](Cc1c[nH]c2ccccc12)C(=O)N[C@@H](Cc1ccc(O)cc1)C(=O)N[C@@H](C)C(=O)N[C@@H](CO)C(=O)N[C@@H](CCCNC(=N)N)C(=O)NCC(=O)N[C@H](C(=O)N[C@@H](CCCNC(=N)N)C(=O)N1CCC[C@H]1C(=O)N[C@H](C(=O)NCC(=O)N[C@@H](CCCNC(=N)N)C(=O)N[C@@H](Cc1ccccc1)C(N)=O)C(C)C)[C@@H](C)CC)[C@@H](C)CC)[C@@H](C)O)[C@@H](C)CC)[C@@H](C)O) [analog no. 56] | 0.00095 µM
7 | Palmitoyl-SRTHRHSMEIRTPDINPAWYASRGIRPVGRF-NH2 [analog no. 57] | 0.00028 µM
8 | Myristoyl-SRAHQHSMETRTPDINPAWYTGRGIRPVGRF-NH2 (SMILES CCCCCCCCCCCCCC(=O)N[C@@H](CO)C(=O)N[C@@H](CCCNC(=N)N)C(=O)N[C@@H](C)C(=O)N[C@@H](Cc1c[nH]cn1)C(=O)N[C@@H](CCC(N)=O)C(=O)N[C@@H](Cc1c[nH]cn1)C(=O)N[C@@H](CO)C(=O)N[C@@H](CCSC)C(=O)N[C@@H](CCC(=O)O)C(=O)N[C@H](C(=O)N[C@@H](CCCNC(=N)N)C(=O)N[C@H](C(=O)N1CCC[C@H]1C(=O)N[C@@H](CC(=O)O)C(=O)N[C@H](C(=O)N[C@@H](CC(N)=O)C(=O)N1CCC[C@H]1C(=O)N[C@@H](C)C(=O)N[C@@H](Cc1c[nH]c2ccccc12)C(=O)N[C@@H](Cc1ccc(O)cc1)C(=O)N[C@H](C(=O)NCC(=O)N[C@@H](CCCNC(=N)N)C(=O)NCC(=O)N[C@H](C(=O)N[C@@H](CCCNC(=N)N)C(=O)N1CCC[C@H]1C(=O)N[C@H](C(=O)NCC(=O)N[C@@H](CCCNC(=N)N)C(=O)N[C@@H](Cc1ccccc1)C(N)=O)C(C)C)[C@@H](C)CC)[C@@H](C)O)[C@@H](C)CC)[C@@H](C)O)[C@@H](C)O) [analog no. 60] | 0.00075 µM
9 | Palmitoyl-SRAHQHSMETRTPDINPAWYTGRGIRPVGRF-NH2 (SMILES CCCCCCCCCCCCCCCC(=O)N[C@@H](CO)C(=O)N[C@@H](CCCNC(=N)N)C(=O)N[C@@H](C)C(=O)N[C@@H](Cc1c[nH]cn1)C(=O)N[C@@H](CCC(N)=O)C(=O)N[C@@H](Cc1c[nH]cn1)C(=O)N[C@@H](CO)C(=O)N[C@@H](CCSC)C(=O)N[C@@H](CCC(=O)O)C(=O)N[C@H](C(=O)N[C@@H](CCCNC(=N)N)C(=O)N[C@H](C(=O)N1CCC[C@H]1C(=O)N[C@@H](CC(=O)O)C(=O)N[C@H](C(=O)N[C@@H](CC(N)=O)C(=O)N1CCC[C@H]1C(=O)N[C@@H](C)C(=O)N[C@@H](Cc1c[nH]c2ccccc12)C(=O)N[C@@H](Cc1ccc(O)cc1)C(=O)N[C@H](C(=O)NCC(=O)N[C@@H](CCCNC(=N)N)C(=O)NCC(=O)N[C@H](C(=O)N[C@@H](CCCNC(=N)N)C(=O)N1CCC[C@H]1C(=O)N[C@H](C(=O)NCC(=O)N[C@@H](CCCNC(=N)N)C(=O)N[C@@H](Cc1ccccc1)C(N)=O)C(C)C)[C@@H](C)CC)[C@@H](C)O)[C@@H](C)CC)[C@@H](C)O)[C@@H](C)O) [analog no. 61] | 0.00041 µM
10 | SHQRPADTHWYPRG[Nle]FPTIGRITARNGEVSR (printed without a C-terminal amide) [analog no. 30] | 1320 µM
11 | Myristoyl-[code f][code r]GVPRIGRGTYWAPNIDPT-NH2 [analog no. 37] | 0.364 µM
